Experiment [1] concerns the target T1, BV2443 (recombinant CoV S glycoprotein, Gamma) (SARS-CoV-2, UniProt P0DTC2 14-1273). As to the kind of experiment: ELISA, plate coated with rS, serial dilution of the mAb, anti-mouse HRP, A450.
The target of experiment [2] is T2, BV2465 (recombinant CoV S glycoprotein, Delta) (SARS-CoV-2, UniProt P0DTC2 14-1273). The description is as above.
The target of experiment [3] is T3, BV2425 (recombinant CoV S glycoprotein, Alpha) (SARS-CoV-2, UniProt P0DTC2 14-1273). Described as above.
The target of experiment [4] is T4, BV2438 (recombinant CoV S glycoprotein, Beta) (SARS-CoV-2, UniProt P0DTC2 14-1273). The experiment is described as above.
The target in experiment [5] is T5, BV2509 (recombinant CoV S glycoprotein, BA.1) (SARS-CoV-2, UniProt P0DTC2 14-1273). Described as above.
Experiment [6] has as its target T6, Delta Plus CoV S glycoprotein (recombinant) (Severe acute respiratory syndrome …, UniProt P0DTC2 14-1273).
Experiment [7] has as its target T1, BV2443 (recombinant CoV S glycoprotein, …).
Experiment [8] has the same target. The experiment can be described thus: hACE2 receptor inhibition ELISA on coated rS; competitor hACE2-His. In general terms: An ELISA detects its analyte on a solid surface through an enzyme-linked reagent.
The target in experiment [9] is T2, BV2465 (recombinant CoV S glycoprotein, …). The experiment is described as above.
The target in experiment [10] is T3, BV2425 (recombinant CoV S glycoprotein, …). The description is as above.
In experiment [11] the target is T4, BV2438 (recombinant CoV S glycoprotein, …). The description is as above.
Experiment [12] addresses T5, BV2509 (recombinant CoV S glycoprotein, …). Described as above.
For experiment [13], the target named is T7, BV2373 (recombinant CoV S glycoprotein, Prototype) (SARS-CoV-2, UniProt P0DTC2 14-1273). The experiment is described as above.
In experiment [14] the target is T8, BV2562 (recombinant CoV S glycoprotein, BA.4.6) (SARS-CoV-2, UniProt P0DTC2 14-1273). The experiment can be described thus: ELISA on coated rS.
For experiment [15], the target named is T9, BV2541 (recombinant CoV S glycoprotein, BA.4) (SARS-CoV-2, UniProt P0DTC2 14-1273). The experiment can be described thus: ELISA on coated rS.
Experiment [16] concerns the target BV2561 (recombinant CoV S glycoprotein, BA.2.75) (SARS-CoV-2, UniProt P0DTC2 14-1273). As to the kind of experiment: ELISA on coated rS.
Experiment [17] deals with T5, BV2509 (recombinant CoV S glycoprotein, …). As to the kind of experiment: ELISA on coated rS.
In experiment [18] the target is T6, Delta Plus CoV S glycoprotein …. The source holds these as a separate data set.
For experiment [19], the target named is BV2589 (recombinant CoV S glycoprotein, BQ.1.1) (SARS-CoV-2, UniProt P0DTC2 14-1273). The experiment can be described thus: BLI, antibody on anti-mouse Fc biosensor, rS analyte.
In experiment [20] the target is T6, Delta Plus CoV S glycoprotein …. The experiment can be described thus: hACE2 receptor inhibition ELISA on coated rS; competitor hACE2-His.
In experiment [21] the target is T3, BV2425 (recombinant CoV S glycoprotein, …). As to the kind of experiment: ELISA on coated rS.
Experiment [22] concerns the target T4, BV2438 (recombinant CoV S glycoprotein, …). The experiment can be described thus: ELISA on coated rS.
In experiment [23] the target is T5, BV2509 (recombinant CoV S glycoprotein, …). The experiment can be described thus: ELISA on coated rS. This is another data set of the same source.
Experiment [24] deals with T7, BV2373 (recombinant CoV S glycoprotein, …). The experiment can be described thus: ELISA on coated rS.
The target of experiment [25] is T8, BV2562 (recombinant CoV S glycoprotein, …).
Experiment [26] addresses T9, BV2541 (recombinant CoV S glycoprotein, …).

The values below come from patent publication US20250066456A1 (NOVAVAX, published 2025).

Where two headings read alike, the source gives them in different places.

B1: 425.6 (antibody, V domains shown)
VH: VQLKQSGPSLVQPSQSLSITCTVSGFSLTSYGIHWVRQSPGKGLEWLGVIWRGGSTDYNAAFMSRLTITKDNSKSQVFFKMNSLQADDTAIYYCATHTEGDDVDYWGQGTSVTVSS
VL: QIVLTQSPAIMSVSPGEKVTMTCSASSTMSFMYWYQQKPGSSPRLLIYDTSNLASGVPVRFSGSGSGTSYSLTISRVEAEDAATYYCQQWNTYPLTFGAGTKLELKR
Turning to B1, the EC50 (usually the concentration needed to bring the measured effect to its halfway point) was 0.01 µg/mL in experiment [1]; 0.012 µg/mL in experiment [2]; 0.011 µg/mL in experiment [3]; 0.011 µg/mL in [4]; above 1 µg/mL in experiment [5]; 0.0098 µg/mL in experiment [6]. Also, the EC50 in experiment [14] was determined as 0.021 µg/mL; in [15], 0.016 µg/mL. For the same molecule, the Kd (as a rule, the equilibrium constant for the complex coming apart) in experiment [7] was 3.52 pM; in the experiment with BV2457 (rS India), below 1 pM. In addition, the IC50 (as a rule, the concentration at which inhibition is half-maximal) in [8] was 0.048 µg/mL; in [9], 0.069 µg/mL; in experiment [10] it was 0.1 µg/mL; in experiment [11] it was 0.048 µg/mL; in experiment [12], above 3 µg/mL; in experiment [13], 0.064 µg/mL. The koff (commonly the rate constant with which the complex falls apart) in the experiment with BV2457 (rS India) was found to be 1.88e-07 s⁻¹. Moreover, the kon – broadly, the rate constant with which the complex forms – with BV2457 (rS India) turned out to be 117000 M⁻¹ s⁻¹.

B2: 322.3 (antibody, V domains shown)
VH: RVQLQQSGPELVKPGASVTISCKASGYIFTSDYIHWVKQRPGQGPEWIGWIYPGNINTKYNEKFKGKATLTADKSSSTAYMQLSSLTSEDSAVYFCARDDGNLYYYAMDYWGQGTSVTVSS
VL: NIVLTQSPASLAVSLGQRATISCRASESVDSYGSSFMHWYQQKPGQPPKLLIYLASNLESGVPARFSGSGSRTDFTLTIDPVEADDAATYYCQQNNEDPRTFGGGTKLEIK
Regarding B2, the EC50 came out at 0.117 µg/mL in experiment [14]; 0.082 µg/mL in experiment [15]; 0.144 µg/mL in [16]; 0.197 µg/mL in experiment [17]; 0.054 µg/mL in [18]. Also, in experiment [19], the Kd was found to be 1.63 pM.

B3: 35.13 (antibody, V domains shown)
VH: QVQLQQSGAELGKPGASVKLSCRASGYTFTRYYIYWVKQRPGQGLEWIGEINPSNGDTHFNEKFKTKATLTVDKSSSSAHIHLTSLTSEDSAVYYCSIHAYSFDFWGQGTTLTVSS
VL: EIQMTQSPSSMSASLGDRITITCQATQDIVKNLNWYQQKPGKPPSFLIYHATELAKGVPSRFSGSGSGSDYSLTISNLESEDFADYYCLQFYDFPFTFGAGTKLELKR
As to B3, the IC50 in experiment [8] came out at 0.07 µg/mL; in [9], 0.098 µg/mL; in experiment [10] it was 0.142 µg/mL; in experiment [11], 0.922 µg/mL; in experiment [12], 0.102 µg/mL; in [13] it was 0.074 µg/mL. Moreover, the IC50 was 0.065 µg/mL in experiment [20], above 3 µg/mL in experiment [25] and above 3 µg/mL in experiment [26]. The EC50 came to 0.011 µg/mL in [21]; 0.119 µg/mL in [22]; 0.05 µg/mL in experiment [23]; 0.007 µg/mL in [24]; 0.048 µg/mL in experiment [16]; 0.038 µg/mL in experiment [17]. Also, in [19], the Kd was below 1 pM. In addition, the koff in experiment [19] is below 1e-07 s⁻¹. In experiment [19], the kon worked out at 26900 M⁻¹ s⁻¹.
